Source: PMC4224607 (Chemical communications (Cambridge, England), 2014)
Non-standard residues stand in square brackets, D forms with d. No end group written: not given here.

Molecular target: human carbonic anhydrase II (human, UniProt P00918 1-260)
Test: SPR

Kd: 5.8 µM
B1: fplsk (peptide)
peptide: [dF][dP][dL][dS][dK]
